PMC11026464, “Local environment in biomolecular condensates modulates enzymatic activity across length scales” (Nature Communications, 2024)
Values belong to the molecule of their own block, whether it stands above or below them.

Columns and labels:
[1] = biological target: Dbp1-NOX (LCD of Dbp1 from Saccharomyces cerevisiae, residues 1 to 155, fused to the N-terminus of NADH oxidase from Thermus thermophilus) (Saccharomyces cerevisiae | Thermus thermophilus) (UniProt P24784); experiment: single-molecule mass photometry; 20 nM protein in low ionic strength buffer (20 mM NaCl), 25 °C, measured over 1 min; Refeyn OneMP
[2] = system: T1, Dbp1-NOX; experiment: NADH absorbance decrease at […] nm, Michaelis-Menten fit; type: biochemical, Thermus thermophilus; conditions: 1 µM enzyme, two-phase micron-sized condensates (apparent, average of dilute and dense phase); 100 µM FAD, O2; 25 mM Tris, 20 mM NaCl, pH 7.5; NADH 50-200 µM
T1 construct: single fusion chain: Dbp1 LCD (1-155) at N-terminus of NOX; E. coli, heat shock and IMAC; dimer 79 kDa; forms condensates/nanoclusters at low salt; with ATP-dependent RNA helicase DBP1 (Saccharomyces cerevisiae)

[3] = biological target: the molecule itself; experiment: single-molecule mass photometry; 20 nM protein in low ionic strength buffer (20 mM NaCl), 25 °C, measured over 1 min; Refeyn OneMP
[4] = substrate: NC(=O)C1=CN([C@@H]2O[C@H](COP(=O)(O)OP(=O)(O)OC[C@H]3O[C@@H](n4cnc5c(N)ncnc54)[C@H](O)[C@@H]3O)[C@@H](O)[C@H]2O)C=CC1; experiment: purified protein; type: biochemical, Thermus thermophilus; conditions: 1 µM enzyme, homogeneous, 100 µM FAD, O2, 25 mM Tris, 20 mM NaCl, pH 7.5, NADH 50-200 µM

- stoichiometry N [1]: 2
Molecule: Dbp1-NOX (LCD of Dbp1 from Saccharomyces cerevisiae, residues 1 to 155, fused to the N-terminus of NADH oxidase from Thermus thermophilus) (from UniProt P24784 1-155) (enzyme)

- Km [2]: 89 ± 34 µM
Molecule: NC(=O)C1=CN([C@@H]2O[C@H](COP(=O)(O)OP(=O)(O)OC[C@H]3O[C@@H](n4cnc5c(N)ncnc54)[C@H](O)[C@@H]3O)[C@@H](O)[C@H]2O)C=CC1 [NADH]

B1: NADH oxidase from Thermus thermophilus (NOX) (enzyme)
chain: MEATLPVLDAKTAALKRRSIRRYRKDPVPEGLLREILEAALRAPSAWNLQPWRIVVVRDPATKRALREAAFGQAHVEEAPVVLVLYADLEDALAHLDEVIHPGVQGERREAQKQAIQRAFAAMGQEARKAWASGQSYILLGYLLLLLEAYGLGSVPMLGFDPERVRAILGLPSHAAIPALVALGYPAEEGYPSHRLPLERVVLWR
notes: NADH oxidase (NOX) from Thermus thermophilus; codon-optimised gene cloned into pET-15b; Purified by heat shock only, so it is not clear whether a His tag is on this protein; The dimer peak in mass photometry is printed as 45 kDa; also called unconjugated NOX; source: E. coli BL21-GOLD (DE3), purified (heat shock method)
- stoichiometry N [3]: 2
- Km [4]: 81 ± 36 µM
- kcat [4]: 1.12 ± 0.21 s⁻¹
